The text below walks through data of the supplement of paper PMC9112550, “Optimization of the antimicrobial peptide Bac7 by deep mutational scanning” (BMC Biology, 2022).
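Further: peptides expressed intracellularly from a pBAD plasmid library in pooled LB shake-flask culture, induced with 0.3% L-arabinose, DNA abundance read by NGS, three biological replicates, DESeq2 with apeglm shrinkage.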

This data set concerns Escherichia coli TOP10. In words: shrunken log2 fold change of peptide-encoding DNA abundance (4.5 h post-induction vs induction); higher = less antimicrobial activity (less host growth inhibition). Conditions: time post-induction: 4.5 h; library: site-saturation at positions 5, 18, 19, 20.
In the case of RRIRARPPRLPRPRPRPWNRPRP, the “shrunken log2 fold change” value is -0.0462.
Turning to RRIRFRPPRLPRPRPRPVGGPRP, the “shrunken log2 fold change” value amounted to 0.405.
RRIRVRPPRLPRPRPRPWEWPRP: the “shrunken log2 fold change” value was determined as 0.0039.
With RRIRGRPPRLPRPRPRPSHKPRP, the “shrunken log2 fold change” value was -0.157.
In the case of RRIRLRPPRLPRPRPRPLYGPRP it was -0.249.
As to RRIRERPPRLPRPRPRPFCNPRP, the “shrunken log2 fold change” value is -0.366.
In the case of RRIRKRPPRLPRPRPRPQIGPRP it was -0.0295; in that of RRIRWRPPRLPRPRPRPVPWPRP, 0.374.
In the case of RRIRARPPRLPRPRPRPNELPRP it was 0.343; in that of RRIRYRPPRLPRPRPRPRQKPRP, 0.114.
In the case of RRIRERPPRLPRPRPRPTRIPRP it was 0.17; in that of RRIRIRPPRLPRPRPRPRGSPRP, -0.189.
For RRIRRRPPRLPRPRPRPETVPRP, the “shrunken log2 fold change” value is -0.11.
On to RRIRRRPPRLPRPRPRPILNPRP, for which the “shrunken log2 fold change” value is -0.0188.
In the case of RRIRTRPPRLPRPRPRPKATPRP it was -0.146; in that of RRIRYRPPRLPRPRPRPGVGPRP, -0.103.
With RRIRSRPPRLPRPRPRPDWAPRP, the “shrunken log2 fold change” value is 0.236.
Consider RRIRCRPPRLPRPRPRPQASPRP, for which the “shrunken log2 fold change” value is -0.000207.
In the case of RRIRFRPPRLPRPRPRPFLPPRP it was -0.208.
For the sequence RRIRSRPPRLPRPRPRPCLQPRP, the “shrunken log2 fold change” value was -0.197.
In the case of RRIRKRPPRLPRPRPRPQLKPRP it was 0.275; in that of RRIRTRPPRLPRPRPRPWKSPRP, -0.0257.
In the case of RRIRTRPPRLPRPRPRPINWPRP, the “shrunken log2 fold change” value was -0.0841.
Turning to RRIRDRPPRLPRPRPRPKKQPRP, the “shrunken log2 fold change” value worked out at 0.187.
For the sequence RRIRYRPPRLPRPRPRPVHMPRP, the “shrunken log2 fold change” value is -0.0179.
Consider RRIRKRPPRLPRPRPRPCFYPRP, for which the “shrunken log2 fold change” value is -0.115.
For RRIRKRPPRLPRPRPRPPRMPRP the value was 0.648; for RRIRERPPRLPRPRPRPYWWPRP, -0.142; for RRIRGRPPRLPRPRPRPTEPPRP, 0.716.
As to RRIRTRPPRLPRPRPRPERPPRP, the “shrunken log2 fold change” value was 0.267.
For RRIRERPPRLPRPRPRPNQTPRP the value was -0.13; for RRIRLRPPRLPRPRPRPPTTPRP, 0.449; for RRIRLRPPRLPRPRPRPYFPPRP, -0.802.
Regarding RRIRERPPRLPRPRPRPAYPPRP, the “shrunken log2 fold change” value is -0.403.
In the case of RRIRGRPPRLPRPRPRPQPMPRP it was 0.412; in that of RRIRLRPPRLPRPRPRPIGVPRP, -0.0539.
Take RRIRGRPPRLPRPRPRPSNHPRP: the “shrunken log2 fold change” value is -0.145.
On to RRIRIRPPRLPRPRPRPADKPRP, for which the “shrunken log2 fold change” value is -0.194.
Take RRIRGRPPRLPRPRPRPDEQPRP: the “shrunken log2 fold change” value is -0.0342.
In the case of RRIRFRPPRLPRPRPRPRKYPRP it was -0.177.
In the case of RRIRRRPPRLPRPRPRPGDLPRP it was 1.58; in that of RRIRPRPPRLPRPRPRPKENPRP, -0.102.
On to RRIRLRPPRLPRPRPRPFNTPRP, for which the “shrunken log2 fold change” value amounted to 0.724.
In the case of RRIRWRPPRLPRPRPRPLKVPRP it was -0.496.
For RRIRHRPPRLPRPRPRPSVPPRP the value was -0.0518.
For RRIRGRPPRLPRPRPRPPPYPRP, the “shrunken log2 fold change” value came to 0.611.
In the case of RRIRCRPPRLPRPRPRPMGWPRP it was 0.324; in that of RRIRSRPPRLPRPRPRPFTIPRP, -0.0987.
In the case of RRIRCRPPRLPRPRPRPHAPPRP it was 0.0482.
With RRIRQRPPRLPRPRPRPIIGPRP, the “shrunken log2 fold change” value is -0.161.
For RRIRVRPPRLPRPRPRPIEFPRP the value was 0.0379.
For RRIRKRPPRLPRPRPRPTDMPRP the value was -0.124.
Turning to RRIRVRPPRLPRPRPRPFLHPRP, the “shrunken log2 fold change” value was -0.13.
On to RRIRFRPPRLPRPRPRPCWYPRP, for which the “shrunken log2 fold change” value is -0.225.
For RRIRWRPPRLPRPRPRPQNQPRP the value was -0.265.
On to RRIRRRPPRLPRPRPRPCYMPRP, for which the “shrunken log2 fold change” value is -0.191.
In the case of RRIRERPPRLPRPRPRPFCVPRP it was -0.026.
For RRIRGRPPRLPRPRPRPQEHPRP, the “shrunken log2 fold change” value is 0.146.
With RRIRTRPPRLPRPRPRPSCHPRP, the “shrunken log2 fold change” value is -0.783.
For the sequence RRIRWRPPRLPRPRPRPSTLPRP, the “shrunken log2 fold change” value is -0.253.
Consider RRIRMRPPRLPRPRPRPMVIPRP, for which the “shrunken log2 fold change” value is -0.0665.
Regarding RRIRARPPRLPRPRPRPVRVPRP, the “shrunken log2 fold change” value came out at 0.781.
In the case of RRIRKRPPRLPRPRPRPGQTPRP it was 0.611.
In the case of RRIRRRPPRLPRPRPRPAVYPRP it was 0.0519; in that of RRIRERPPRLPRPRPRPIDQPRP, 0.00338; in that of RRIRWRPPRLPRPRPRPQASPRP, -0.11.
As for RRIRNRPPRLPRPRPRPDQMPRP, the “shrunken log2 fold change” value was 0.0898.
In the case of RRIRTRPPRLPRPRPRPDQDPRP it was -0.0328.
In the case of RRIRYRPPRLPRPRPRPVRGPRP it was 0.393.
In the case of RRIRHRPPRLPRPRPRPKLLPRP, the “shrunken log2 fold change” value was -0.0097.
In the case of RRIRLRPPRLPRPRPRPKPAPRP it was 0.679.
For RRIRGRPPRLPRPRPRPNYVPRP the value was 0.216; for RRIRDRPPRLPRPRPRPSEKPRP, -0.0166.
For RRIRQRPPRLPRPRPRPSSVPRP the value was 0.00784; for RRIRWRPPRLPRPRPRPSIYPRP, -0.305.
For the sequence RRIRARPPRLPRPRPRPCIMPRP, the “shrunken log2 fold change” value was -0.00141.
Consider RRIRMRPPRLPRPRPRPETPPRP, for which the “shrunken log2 fold change” value came out at 3.09.
For the sequence RRIRSRPPRLPRPRPRPAGWPRP, the “shrunken log2 fold change” value came to 0.795.
For the sequence RRIRDRPPRLPRPRPRPQKKPRP, the “shrunken log2 fold change” value is -0.0848.
For RRIRWRPPRLPRPRPRPCCHPRP the value was -0.169.
On to RRIRARPPRLPRPRPRPLAHPRP, for which the “shrunken log2 fold change” value is 0.296.
On to RRIRWRPPRLPRPRPRPPEGPRP, for which the “shrunken log2 fold change” value stood at 0.163.
In the case of RRIRSRPPRLPRPRPRPDGQPRP it was -0.00208.
In the case of RRIRIRPPRLPRPRPRPLTFPRP it was -0.173.
For RRIRMRPPRLPRPRPRPWSVPRP the value was -0.0283.
For RRIRCRPPRLPRPRPRPNDQPRP, the “shrunken log2 fold change” value was 0.0359.
For RRIRPRPPRLPRPRPRPVVGPRP the value was 0.212; for RRIRFRPPRLPRPRPRPKQGPRP, -0.00975; for RRIRTRPPRLPRPRPRPVGMPRP, -0.388.
For RRIRYRPPRLPRPRPRPYTHPRP the value was -0.508; for RRIRERPPRLPRPRPRPDANPRP, -0.103.
For RRIRARPPRLPRPRPRPIMFPRP, the “shrunken log2 fold change” value was -0.0901.
Take RRIRKRPPRLPRPRPRPTRDPRP: the “shrunken log2 fold change” value amounted to 0.753.
For RRIRSRPPRLPRPRPRPYCGPRP, the “shrunken log2 fold change” value was -0.726.
RRIRFRPPRLPRPRPRPESGPRP: the “shrunken log2 fold change” value stood at 0.0504.
For RRIRVRPPRLPRPRPRPWLFPRP the value was 0.141; for RRIRPRPPRLPRPRPRPADWPRP, 0.434; for RRIRNRPPRLPRPRPRPIAYPRP, -0.0604.
In the case of RRIRQRPPRLPRPRPRPYKKPRP it was -0.0619.
For RRIRDRPPRLPRPRPRPFHMPRP the value was 0.0426.
Regarding RRIRPRPPRLPRPRPRPQQLPRP, the “shrunken log2 fold change” value is 0.0282.
For RRIRGRPPRLPRPRPRPRIVPRP the value was 0.824; for RRIRHRPPRLPRPRPRPFCCPRP, -0.0718; for RRIRERPPRLPRPRPRPQNAPRP, 0.0619.
Take RRIRCRPPRLPRPRPRPHMGPRP: the “shrunken log2 fold change” value was -0.29.
In the case of RRIRCRPPRLPRPRPRPVLWPRP, the “shrunken log2 fold change” value was found to be 0.136.
For RRIRVRPPRLPRPRPRPTRMPRP the value was 0.0492.
In the case of RRIRRRPPRLPRPRPRPCGEPRP it was 0.0238; in that of RRIRTRPPRLPRPRPRPLEVPRP, -0.00296.
Regarding RRIRVRPPRLPRPRPRPNNEPRP, the “shrunken log2 fold change” value was -0.301.
Take RRIRSRPPRLPRPRPRPIWGPRP: the “shrunken log2 fold change” value is 0.0936.
For RRIRARPPRLPRPRPRPKKQPRP the value was 0.0491; for RRIRCRPPRLPRPRPRPVLFPRP, -0.101; for RRIRPRPPRLPRPRPRPQHMPRP, -0.537.
Take RRIRQRPPRLPRPRPRPGASPRP: the “shrunken log2 fold change” value is 0.326.
For RRIRCRPPRLPRPRPRPCHCPRP the value was 0.00562.
On to RRIRQRPPRLPRPRPRPGPIPRP, for which the “shrunken log2 fold change” value worked out at 0.253.
In the case of RRIRTRPPRLPRPRPRPDGLPRP it was 0.0665.
Take RRIRFRPPRLPRPRPRPTLWPRP: the “shrunken log2 fold change” value stood at 0.275.
On to RRIRIRPPRLPRPRPRPRKQPRP, for which the “shrunken log2 fold change” value was -0.00244.
Regarding RRIRYRPPRLPRPRPRPDLPPRP, the “shrunken log2 fold change” value is -0.0756.
In the case of RRIRMRPPRLPRPRPRPDDEPRP it was 0.123; in that of RRIRSRPPRLPRPRPRPKTIPRP, -0.174; in that of RRIRSRPPRLPRPRPRPNFGPRP, -0.265.
In the case of RRIRERPPRLPRPRPRPWNGPRP it was 0.208.
